According to US20210077576A1:

B1: NOD201M (NOD201 with murine Fc domain; no linker) (Fc fusion)
chain: GCPRPRGDNPPLTCSQDSDCLAGCVCGPNGFCGEPRVPITQNPCPPLKECPPCAAPDLLGGPSVFIFPPKIKDVLMISLSPMVTCVVVDVSEDDPDVQISWFVNNVEVHTAQTQTHREDYNSTLRVVSALPIQHQDWMSGKEFKCKVNNRALPSPIEKTISKPRGPVRAPQVYVLPPPAEEMTKKEFSLTCMITGFLPAEIAVDWTSNGRTEQNYKNTATVLDSDGSYFMYSKLRVQKSTWERGSLFACSVVHEGLHNHLTTKTISRSLG

Tests used:
[1] = biological target: monkey integrins on CV-1 and RF/6A cells; experiment: flow cytometry on CV-1 (monkey) cells, detection with an antibody against the Fc domain [panel CV-1 (monkey]
[2] = biological target: monkey integrins on CV-1 and RF/6A cells; experiment: flow cytometry on CV-1 (monkey) cells, bound protein detected with an antibody against the Fc domain; cell of the drawn KD table, column CV-1 [KD table]
[3] = biological target: monkey integrins on CV-1 and RF/6A cells; experiment: flow cytometry on RF/6A (monkey) cells, bound protein detected with an antibody against the Fc domain; cell of the drawn KD table, column RF/6A [KD table]
[4] = biological target: rabbit integrins on SIRC cells (rabbit corneal cells); experiment: flow cytometry on SIRC (rabbit cornea) cells, detection with an antibody against the Fc domain; cell of the drawn KD table, column SIRC [KD table]
[5] = biological target: rat integrins on Rat2 cells (rat fibroblasts); experiment: flow cytometry on Rat2 (rat fibroblast) cells, detection with an antibody against the Fc domain; cell of the drawn KD table, column Rat2 [KD table]
[6] = biological target: human integrins on U87MG cells (human tumor cells); experiment: flow cytometry on U87MG (human) cells, bound protein detected with an antibody against the Fc domain; cell of the drawn KD table, column U87MG [KD table]

Molecule	EC50 (read off the curve) [1] [nM]	Kd [2] [nM]	Kd [3] [nM]	Kd [4] [nM]	Kd [5] [nM]	Kd [6] [nM]
NOD201 (2.5F peptide fused to human IgG1 Fc; no linker) (Fc fusion)	2	1.5	0.5	0.288	1.01	
B1						0.7
